Laboratory results taken from a protein production outcome set (Wang et al. 2014).

Experiment: label from the status in PepcDB records

Sequence	protein production
MIDEWPVPTAAAAVIGPSGVLATHGDDAKPFALASVTKLLVARAAQVAIEEGVVELDTPAGPDGSTVRHLLAHTSGVAMNSADTVAQVGQRRVYSNFGFGLLAHAIEDAAEIEFGRYLTEAVFEPLGMSTSKLLGGADAAGFGVTSTVSDLARFAGDLLRPALVSQQMHDEATSVQFPGVNGVLPGFGSQRPNDWGLGFEIRDGKTPHWTGSSNSPRTFGHFGQSGTFLWVDPVADLALLVLTDRDFGDWTYPLWPAISDGVLREIGTHLEHHHHHH	failed
MTVPEEAQTLIGKHYRAPDHFLVGREKIREFAVAVKDDHPTHYSEPDAAAAGYPALVAPLTFLAIAGRRVQLEIFTKFNIPINIARVFHRDQKFRFHRPILANDKLYFDTYLDSVIESHGTVLAEIRSEVTDAEGKPVVTSVVTMLGEAAHHEADADATVAA	failed
MDVPSPCNVLMLYPLFTAESFWSFGESCKLMGVKRPAAPLGLITVAAMLPADWTVRLIDCNTSPLGDEDLAWADVVFTGGMLPQQADTLRLIELCRAAGKPVVVGGPDPTSSPHIYERADFRVLGEAESVIDEFIAAWEGGARSGVFTAPKFQADVTRTPVPRFDLLKFEDYLYIGVQYSRGCPFTCEFCDIIELYGRVPRTKTAEQMFVELETLYRMGYRGHLDFVDDNFIGNKKSLRLFLPQLAEWQRAHGYPFEFSTEASINLADDPELLEQMGAANFFGIFVGIESPDPATLVAMRKKQNTRRNIAESIHKIYAAGILVTAGFIVGFDNEKVSMAEAMIEFIEEAAIPVSMVGLLYALPNTQLTRRLEREGRLHPGHDLAPTIGADQCTDGINFDPVRPLRDILMDYKRVLERIYSPAAYAGRIDRLMTLLDRSRQRHALAEGDIRAKLGAMETVHRVVTAIPEARGPLWQTFMNCAKRDTSSARIAVQMIAAYAHLGPFSRKVIDAIDARLAALDDETVIPAATIDATAARHLA	failed
MASKSVHADITLLLDMEGVIREATLSPTMAAESVDGWLGRRWSDIAGAEGGDKVRRMVEDARRSGISAFRQINQPFPSGVEIPIEFTTMLLGDRTGMIAVGKNMQAVTELHSRLIAAQQAMERDYWRLRELETRYRLVFDAAADAVMIVSAGDMRIVEANRAAVNAISRVERGNDDLAGRDFLAEVAAADRDAVRDMLAQVRQRGTALSVLVHLGRYDRAWMLRGSLMSSERRQVFLLHFTPVTTTPAIDDVDDDAVLRGLIDRIPDGFVALDSEGVVRHANQAFLDLVQIGSKPAAVGRSLGVWMGRPGADLSSLLTLLRRYKTVRLFQTTIRGELGTETEVEVSAVDGEDDQYIGVLMRNVARRLDAADDHDALRQALGPISKQLGRSSLRKLVKNAVSIVEQHYVKEALLRSKGNRTATAELLGLSRQSLYAKLNCYGFDDKGVVASAADGAEGASDDAED	failed
MNSGDNIIKKKSFTFAVRIVNLYKVLSSEIKEFVMSKQLLRSGTSVGANIREALNAQSKPGFIHKLAISQKECDETGYTNNVEFESMNTDAIELLKIVRSIIMTSKKNIIHNSLEHHHHHH	failed
AIASRAASLRAELTSLANAFEEERISSAERLDADLVRQAVEQAKPENLEQWKQVVHDATAKLQQFWEDSEQALIRETYALATSYLRESDDEVHRLQMTKKALEEQLETERRRSTRIEEQLAALQSRLLDSAAPAATTPADDARTQQEVLRSELQGFMQELVRNQRESLRVLQEELQRVREEASVREENLLRQIAHLKTELAVARTDNEVSSRQLRQLETSAGREEVQDELGPGTIWPPHLTPRRGHRRFQRHNRLEDAPAPPEF	failed
MSGAVPETPYHQRWLAFPDAVSSYRPLESRLAGTSRATADNRTPCTGRLGTPRVFLMATDDVSKAYSSPTFDAEALLGTVISAEDPDRVLIEPWATGVDGVILDVGSGTGRWTGHLASLGHQIEGLEPATRLVELARQTHPSVTFHHGTITDLSDSPKRWAGLLAWYSLIHMGPGELPDALVALRMAVEDGGGLLMSFFSGPSLEPMYHPVATAYRWPLPELAQALETAGFQVTSSHWDPRFPHAYLTAEASKQNLALEHHHHHH	failed
MNPEPRCPCVLLLDTSGSMQGAAIEALNQGLLSLKDELMKNSIAARRVEIAIVTFDSHINVIQDFVTADQFNPPILTAQGLTSMGAGIHKALDMVQERKSLYRANGVAYYRPWVFMITDGEPQGELDHLVEQAALRLQGDEVNKRVAFFSVGVENANMTRLNQIAVRTPLEHHHHHH	failed
EWQHRGYGRELLAEAERIAREEFDAKKMLIISGVGVREYYRKFGYRKDGPYVSKRLDKRYADYKRTNRFDAELNT	failed
MGEPNLQLSLLYVIAIFTSAILLSARMSLLITLLAVIAVIYQRFVGSLFDYNNLNTIGNSALLAFLFFVVHRIGQIAVQRFKLLEALTFHQSIELYQLQNINRYILEQIEEGYLVLDENYDIVVSNPAACSLLGIPPQFANEKYPLAKWHADLFEILKFGDLKEGDRFIFESRLSAYSINIKVQHLLVPQQTLTLLILQDAQQINQQAQQLKLAALGQLSASIAHEIRNPLAAIVQANELLKDSDPEQQNTLRHMIGKQTKRIDSIVQDTLGLARSERTHPIQIDVKHFIDTLLEEDLFDVKHSIQLKISDSSLKFLFDEKQLRQVMINLVRNALRHNATDSPYITINIHSQTNKIYIDVIDYGEGVSKRDISQLFKPFFSTEINGTGLGLYLSHSFCEANHAKLTYVEQKQGACFRIECPIIY	failed
SGTFDSQCHECFESKERWYEIGPTDLLERKGSLTLRSHHKKYSEPVLVYSWHRNREAFPKDYDIESLETVKNLCMSTYKRFGSDSPRWMSEAREQMAQVLVNKDLVEKKKTGLLDEETLCPGILERDPELPPTGFRDVPMESPPDPRKPCFSTTYSEDFTPQYEYPPPACPRREEYSIVHRKCRSQFTDLNGSKRLGINTWHDESGIYANSEAKQKLYALARNPIVPF	failed
MSNWPYPRIVAHRGGGKLAPENTLAAIDVGAKYGHKMIEFDAKLSKDGEIFLLHDDNLERTSNGWGVAGELNWQDLLRVDAGSWYSKAFKGEPLPLLSQVAERCREHGMMANIEIKPTTGTGPLTGKMVALAARQLWAGMTPPLLSSFEIDALEAAQQAAPELPRGLLLDEWRDDWRELTARLGCVSIHLNHKLLDKARVMQLKDAGLRILVYTVNKPQHAAELLRWGVDCICTDAIDVIGPNFTAQ	not failed
MPDIFQQEARGWLRCGAPPFAGAVAGLTTKHGGESKGPFASLNMGLHVGDDRTDVVNNRRRLAEWLAFPLERWVCCEQVHGADIQKVTKSDRGNGAQDFATAVPGVDGLYTDEAGVLLALCFADCVPIYFVAPSAGLVGLAHAGWRGTAGGIAGHMVWLWQTREHIAPSDIYVAIGPAIGPCCYTVDDRVVDSLRPTLPPESPLPWRETSPGQYALDLKEANRLQLLAAGVPNSHIYVSERCTSCEEALFFSHRRDRGTTGRMLAFIGRREEWT	not failed
MAPETLAPDTTGLEVRLRLTDDWFTACDLGALLPGRGVAALLPDGGQVALFRDRDGGLYAIDNRDPFTGAAVLSRGLTGTHQGRPFVASPLLKQRFDLTTGECLDDAAMRVETYRVQAVRAVPAVNAVNPALEHHHHHH	failed
MKNIIPQALLTMPILSTGLQAQEKQPTPNLVFIMADQYRGDAIGCIGKEPVKTPHLDKLASEGINFTNAISSYPVSSPARGMLMTGMYPIGSKVTGNCNSETAPYGVELSQNARCWSDVLKDQGYNMGYIGKWHLDAPYKPYVDTYNNRGKVAWNEWCPPERRHGFDHWIAYGTYDYHLKPMYWNTTAPRDSFYYVNQWGPEYEASKAIEYINGQKDQKQPFALVVSMNPPHTGYELVPDRYKEIYKDLDVEALCKGRPDIPAKGTEMGDYFRNNIRNYYACITGVDENVGRIIEALKQNNLFDNTIVVFTSDHGICMGAHENAGKDIFYEESMRIPMILSWPDQIKPRKSDPLMIAFADLYPTLLSMMGFSKEIPETVQTFDLSNEVLTGKNKKDLVQPYYFVKFDNHATGYRGLRTDRYTYAVHATDGKIDNVILFDRTNDPHEMNNIASQQLKLTHTFNRQLKTWLEKTNDPFAQYIKLKLEHHHHHH	not failed
TEDNIVELDGREWIMTRRQKTRVATNIILLDIPKRIIEKYAPVRKNGHLLPILSNQKMNAYLKEIADLCNIRKPLSFHMARYREFYKHQIINRLYCMSIKGGNEKETSELLYSTLFCHFKEPLFVDCKDSDFFNNMIAIEEL	failed
MIETTAALAEACTELAKSEFITIDTEFLRETTFWPELCLVQMASPTLEVLVDPLAKGIDLTPMFELMANPNVVKVFHAARQDIEIIYHLGGLIPHPIFDTQVAAMVCGFGDSISYDQLVQKIKNVQIDKSSRFTDWSRRPLTEKQLDYALADVTHLRDVYLSLKAQLEREGRSLWLTEEMNILESRDTYDMHPDDAWLRLKSRLRKPTELAILKFVAAWREREARSRNVPRSRVLKDDGIFEIAQQQPKDAEALSRLRTIPKGWERSASGTAIIETVNAALALPKEEMPKAPRHSHAPEGSGAAVELLKVLLKLTADKHGVAAKVIANSDDLDKIASEGENATVAALTGWRRELFGDVALKLINGEVALRFAGKKVEAVEVEAAASES	failed
MLKKGNEMKAVIVYASVHHGNTKKIEEAMASVISADVIDVTRKIKPDLSGYDVIGFVSGVYFHTFHEGIKKCIEENMSSKGQKVFLVATCGLGYRDYTKGMKDTLAKKDVLCMGSFQCRGWDTYGIFGKIGGIAKKHPNDRDLKEAQEFVLKTVCKTNLEHHHHHH	not failed
MSLTAQIRLAEPADLNDDTLRARAVAAARGDQRFDVLITGGTLVDVVTGELRPADIGIVGALIASVHEPASRRDAAQVIDAGGAYVSPGLIDTHMHIESSMITPAAYAAAVVARGVTTIVWDPHEFGNVHGVDGVRWAAKAIENLPLRAILLAPSCVPSAPGLERGGADFDAAILADLLSWPEIGGIAEIMNMRGVIERDPRMSGIVQAGLAAEKLVCGHARGLKNADLNAFMAAGVSSDHELVSGEDLMAKLRAGLTIELRGSHDHLLPEFVAALNTLGHLPQTVTLCTDDVFPDDLLQGGGLDDVVRRLVRYGLKPEWALRAATLNAAQRLGRSDLGLIAAGRRADIVVFEDLNGFSARHVLASGRAVAEGGRMLVDIPTCDTTVLKGSMKLPLRMANDFLVKSQGAKVRLATIDRPRFTQWGETEADVKDGFVVPPEGATMISVTHRHGMAEPTTKTGFLTGWGRWNGAFATTVSHDSHNLTVFGGNAGDMALAANAVIGTGGGMAVASEGKVTAILPLPLSGLVSDAPLEEVARAFEDLREAVGKVVEWQPPYLVFKACFGATLACNIGPHQTDMGIADVLTGKVMESPVIEVLGEGHHHHHH	not failed
RDSLFNDPNAPVLGNPEGDVTVVEFFDYNCPYCRRAMAEVQGLVDADPNVRLVYREWPILGEGSDFAARAALAARQQGKYEAFHWALMGMSGKANETGVLRIAREVGLDTEQLQRDMEAPEVTAHIAQSMALAQKLGFNGTPSFVVEDALVPGFVEQSQLQDAVDRARKAAAK	not failed
MSITERFFYLEKEPCVIYLPEKPNGFSVMLLGDYNYFIENGTSLWTQHTGRSYFLHGLIEEGYTVFSSNLYGRHWGNDQSVRLAKRLYDVVLRKETLNAKMHIMADGMGALVALEMMNKYPECIRSVIMLNPCLDLPEYVEFEKEHKFFYKRLLKELSLAYDAKEEELEA	failed
ATHIIFTTHENSDGDGLGSQVALALALKALGKEVAIFNPTEVPPNYLFLKELHEINLFRDRDEESMQEFFLADLLVVLDANLHDRIGRLWPHVEFARQMSRLKVLCIDHHLEPEDFADITVCETYASSTGELVCDLVTALELRTGQQLFTPEVASALYAAIMTDTGSFRFPKTTPYTYRLAGMLVEKGADPELVYDRIYNAL	failed
MLTTQGVPEFCYITIIGLILFMIFKEVLSQSKFWRKDLESSSNMVILPLLISFSAIVAYKIAEIL	failed
